Measured values reported in IntAct's records for PubMed 19262565.

B1: Histone-lysine N-methyltransferase SETD7 (Homo sapiens), Q8WTS6 (parent)
chain: MDSDDEMVEEAVEGHLDDDGLPHGFCTVTYSSTDRFEGNFVHGEKNGRGKFFFFDGSTLEGYYVDDALQGQGVYTYEDGGVLQGTYVDGELNGPAQEYDTDGRLIFKGQYKDNIRHGVCWIYYPDGGSLVGEVNEDGEMTGEKIAYVYPDERTALYGKFIDGEMIEGKLATLMSTEEGRPHFELMPGNSVYHFDKSTSSCISTNALLPDPYESERVYVAESLISSAGEGLFSKVAVGPNTVMSFYNGVRITHQEVDSRDWALNGNTLSLDEETVIDVPEPYNHVSKYCASLGHKANHSFTPNCIYDMFVHPRFGPIKCIRTLRAVEADEELTVAYGYDHSPPGKSGPEAPEWYQVELKAFQATQQK

Variants of: B1
Details: with tf65_human RELA
For MDSDDEMVEEAVEGHLDDDGLPHGFCTVTYSSTDRFEGNFVHGEKNGRGKFFFFDGSTLEGYYVDDALQGQGVYTYEDGGVLQGTYVDGELNGPAQEYDTDGRLIFKGQYKDNIRHGVCWIYYPDGGSLVGEVNEDGEMTGEKIAYVYPDERTALYGKFIDGEMIEGKLATLMSTEEGRPHFELMPGNSVYHFDKSTSSCISTNALLPDPYESERVYVAESLISSAGEGLFSKVAVGPNTVMSFYNGVRITHQEVDSRDWALNGNTLSLDEETVIDVPEPYNHVSKYCASLGHKANASFTPNCIYDMFVHPRFGPIKCIRTLRAVEADEELTVAYGYDHSPPGKSGPEAPEWYQVELKAFQATQQK [H297A], the “effect of a mutation on the interaction” value was “disrupting interaction”.
